Laboratory results: PMC10567853, “USP1 promotes cholangiocarcinoma progression by deubiquitinating PARP1 to prevent its proteasomal degradation” (Cell Death & Disease, 2023)
Substitutions are numbered along the chain they refer to. One block for each binder: values may come before it.

Biological target: T1, Myc-tagged full-length (FL) PARP1 (UniProt P09874 1-1014)
T1 construct: also called Myc-PARP1
Test: pull-down; GST, GST-USP1 or GST-USP1 C90S coupled to glutathione-Sepharose beads, incubated with purified Myc-PARP1; 50 mM Tris-HCl, 200 mM NaCl, 1 mM EDTA, 1% NP-40, 1 mM DTT, 10 mM MgCl2, pH 8.0; 4 °C, 4 hours
Details: both partners purified

T1 sequence (P09874 whole entry): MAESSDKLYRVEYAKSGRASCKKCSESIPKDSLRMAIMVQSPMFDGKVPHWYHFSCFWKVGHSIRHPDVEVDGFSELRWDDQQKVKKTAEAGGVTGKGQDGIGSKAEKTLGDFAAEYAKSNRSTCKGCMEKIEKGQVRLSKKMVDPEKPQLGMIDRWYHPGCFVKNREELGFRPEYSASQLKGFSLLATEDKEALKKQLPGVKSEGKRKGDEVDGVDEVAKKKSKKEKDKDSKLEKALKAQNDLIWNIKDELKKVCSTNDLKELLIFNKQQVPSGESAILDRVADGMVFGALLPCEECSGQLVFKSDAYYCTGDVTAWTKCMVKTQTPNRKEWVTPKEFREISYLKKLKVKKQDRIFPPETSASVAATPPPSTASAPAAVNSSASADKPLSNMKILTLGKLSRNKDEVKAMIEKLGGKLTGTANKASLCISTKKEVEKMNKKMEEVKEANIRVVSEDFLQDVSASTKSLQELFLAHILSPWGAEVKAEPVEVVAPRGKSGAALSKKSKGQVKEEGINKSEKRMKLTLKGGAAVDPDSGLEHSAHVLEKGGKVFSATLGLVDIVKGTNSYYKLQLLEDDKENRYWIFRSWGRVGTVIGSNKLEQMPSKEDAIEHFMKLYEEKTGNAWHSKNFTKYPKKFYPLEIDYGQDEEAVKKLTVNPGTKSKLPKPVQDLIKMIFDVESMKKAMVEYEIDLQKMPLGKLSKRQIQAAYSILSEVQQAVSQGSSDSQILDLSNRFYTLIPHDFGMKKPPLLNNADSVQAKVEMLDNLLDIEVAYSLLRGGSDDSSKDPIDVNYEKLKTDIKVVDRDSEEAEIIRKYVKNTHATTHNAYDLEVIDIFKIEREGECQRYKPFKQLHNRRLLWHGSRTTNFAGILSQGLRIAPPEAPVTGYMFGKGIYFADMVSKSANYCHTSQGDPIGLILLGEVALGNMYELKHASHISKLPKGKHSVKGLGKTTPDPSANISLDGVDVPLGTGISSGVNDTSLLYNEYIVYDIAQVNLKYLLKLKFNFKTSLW

binding result: binds
B1: GST-USP1 (enzyme, UniProt O94782 1-785, looked up)
chain: MPGVIPSESNGLSRGSPSKKNRLSLKFFQKKETKRALDFTDSQENEEKASEYRASEIDQVVPAAQSSPINCEKRENLLPFVGLNNLGNTCYLNSILQVLYFCPGFKSGVKHLFNIISRKKEALKDEANQKDKGNCKEDSLASYELICSLQSLIISVEQLQASFLLNPEKYTDELATQPRRLLNTLRELNPMYEGYLQHDAQEVLQCILGNIQETCQLLKKEEVKNVAELPTKVEEIPHPKEEMNGINSIEMDSMRHSEDFKEKLPKGNGKRKSDTEFGNMKKKVKLSKEHQSLEENQRQTRSKRKATSDTLESPPKIIPKYISENESPRPSQKKSRVKINWLKSATKQPSILSKFCSLGKITTNQGVKGQSKENECDPEEDLGKCESDNTTNGCGLESPGNTVTPVNVNEVKPINKGEEQIGFELVEKLFQGQLVLRTRCLECESLTERREDFQDISVPVQEDELSKVEESSEISPEPKTEMKTLRWAISQFASVERIVGEDKYFCENCHHYTEAERSLLFDKMPEVITIHLKCFAASGLEFDCYGGGLSKINTPLLTPLKLSLEEWSTKPTNDSYGLFAVVMHSGITISSGHYTASVKVTDLNSLELDKGNFVVDQMCEIGKPEPLNEEEARGVVENYNDEEVSIRVGGNTQPSKVLNKKNVEAIGLLGGQKSKADYELYNKASNPDKVASTAFAENRNSETSDTTGTHESDRNKESSDQTGINISGFENKISYVVQSLKEYEGKWLLFDDSEVKVTEEKDFLNSLSPSTSPTSTPYLLFYKKL
notes: Coupled to glutathione-Sepharose beads in the pull-down; also called recombinant GST-USP1; source: E. coli BL21 (DE3), purified (GST-tag purification resin)

binding result: binds
B2: GST-USP1 C90S (enzyme, UniProt O94782 1-785, looked up)
chain: B1 chain with C90S
notes: Coupled to glutathione-Sepharose beads in the pull-down; source: E. coli BL21 (DE3), purified (GST-tag purification resin)
